“Also recorded” adds a separate entry of the source.
Columns and labels:
[1] = Determination of the aggregative character of the peptides by sedimentation; format: physicochemical; conditions: sedimentation, Garnier-Delamarche representation
Method: (§1) After thawing, a pre-dilution in milli Q H2O filtered through 0.2 μm was carried out in order to obtain a solution at a concentration close to the working concentration, greater than 1.25 times. This stock solution was left to incubate for 1 hour in a water bath at 25° C., and was then assayed spectrophotometrically and adjusted to the final working concentration of 1.25 times. The polymerization was initiated by adding ¼ of the volume of 5× fibrillation buffer (50 mM MOPS, 750 mM NaCl, pH=7.2) for a final concentration of 1× fibrillation buffer (10 mM MOPS, 150 mM NaCl, PH=7.2). The samples were left to incubate for 1.5-2 hours at 25° C. in a water bath. The study of the polymerization by fluorimetry was carried out under the same conditions, except that the 5× polymerization buffer was supplemented with Thioflavin T (ThT) at 100 μM in order to be able to observe the fluorescence. • (a) Determination of the Aggregative Character of the Peptides. Once polymerized, the samples were ultracentrifuged at 100,000 g for 5 minutes at 25° C. (Beckman TL100, rotor TL-A100). The supernatants of each sample were then collected. An assay at 280 nm in triplicate of each supernatant was then carried out in the presence of 1% SDS. The concentration of the supernatant was determined using the Beer-Lambert law A=ε×1×C; ε (peptides)=1450 M^−1cm^−1. The concentration of sedimentable species in the pellet was then deduced by the difference: “total concentration of the sample—concentration of free peptide present in the supernatant”. • (b) Determination of the Amyloidogenic Character of the Peptides. Once the peptides have polymerized as previously indicated, 40 μL of peptides polymerized at a concentration of 400 μM and 800 μM were diluted in 360 μL of Thioflavin T (10 μM ThT, 1×MOPS) in a thermostatically controlled tank of 0.2×1 cm, to a final volume of 400 μL. The fluorescence of the sample was then measured immediately after dilution by recording a fluorescence spectrum (470 nm to 600 nm) at an excitation wavelength of 450 nm (Perkin Elmer LS 55, PM 750, slit10).
(§2) After prediction of their amyloidogenic character by bioinformatics, all the peptides were studied using biochemical techniques, namely sedimentation and fluorescence/ThT. The biochemical experiments were carried out at two peptide concentrations: 400 μM and 800 μM. Only the results obtained at 800 μM are presented. At this concentration, in sedimentation, the amount of sedimentable peptide after polymerization was measured and expressed as a percentage as a function of the total concentration. This value corresponds to the aggregative character of the peptides. On the other hand, the fluorescence test was used to determine their amyloidogenic character, the fluorescence value given corresponds to a normalization with respect to 1p, considering that its fluorescence is 100% (Table 4).

[2] = Determination of the amyloidogenic character of the peptides by Thioflavin T fluorescence; format: physicochemical; conditions: ThT fluorescence, Garnier-Delamarche representation
Method: as §1, §2

[3] = molecular target: T1, PHF6 peptide (VQIVYK, 1p) (Homo sapiens, UniProt P10636); experiment: Effects of the derived peptides on VQIVYK polymerization by spectrofluorimetry (ThT kinetics); format: biochemical
T1 construct: The polymerization of VQIVYK was initiated by adding ¼ of the volume of fibrillation buffer 5×

[4] = Polymerization kinetics of selected peptide alone (ThT spectrofluorimetry); format: physicochemical; conditions: 310 μM, ThT fluorescence
Method: After thawing, a pre-dilution of the peptides of interest in sterile water was carried out in order to obtain, for each peptide, a solution at a concentration close to the working concentration. The peptides were then left to incubate at 4° C. overnight. On the day of the experiment, the peptide solutions were sonicated for 10 minutes, left to stand for one hour at room temperature, sonicated again for 10 minutes and assayed spectrophotometrically at 280 nm (8=1450 M^−1cm^−1). The UV spectra were previously normalized to 0 at 300 nm. The solutions were prepared at concentrations of peptides ¼ above that desired in the end. The polymerization of VQIVYK was initiated by adding ¼ of the volume of fibrillation buffer 5× for a final concentration of fibrillation buffer 1× (10 mM MOPS, 150 mM NaCl, pH=7.2).
The analyses were carried out on a spectrofluorometer (LS 55 from Perkin Elmer) fitted with a 4-cell rack. Black quartz cells (0.2×1.0 cm) were used. […]
The results were first smoothed over 10 points with the “smooth” option of the KaleidaGraph software. […] Finally, the results of each kinetics were normalized relative to the fluorescence intensity of the 1p control after 100 minutes of polymerization considered to be 100%.

[5] = test system: cells of the neuroblastoma line SH-SY5Y; experiment: Growth of SH-SY5Y neuroblastoma cells (images); format: cell-based; conditions: 100 μM, 24 hours, 1×DMEM medium, 8% serum
Method: The effects of three hexapeptides classified as “therapeutic” (1tp, 4tp, 6tp) and of two peptides classified as “amyloid” (7tp and 1p) on the growth of cells of the neuroblastoma line SH-SY5Y were studied after 24 hours of treatment in the presence of a hexapeptide at a concentration of 100 μM in 1×DMEM medium, 8% serum. The results obtained are presented on FIG. 10(A).

For YQIVVK (Ac-YQIVVK-NH2) [6tp], the “aggregative character (in words)” value [1] was “weakly aggregative”, the “amyloidogenic character (in words)” value [2] was “weakly amyloidogenic” and the “category of polymerization kinetics of 1p in the presence of peptide” value ([3]; [1p]=155 μM, [selected peptide]=310 μM) was “slow compared to 1p alone and which have a lower fluorescence intensity”. For the same substance, the “inhibitory effect on 1p (PHF6) polymerization (in words)” value ([3]; [1p]=155 μM, [selected peptide]=310 μM, thresholds 50% rate, 100% fluorescence intensity) was “clearly inhibited; also recorded: marked inhibitory effect; also recorded: with a strong inhibitory effect”, the “inhibitory effect over longer times” value ([3]; polymerization followed for 15 hours) was “the inhibitory effect persisted” and the “polymerization of the peptide on its own” value [4] was “do not polymerize on their own”. The “effect on cell growth (number and appearance of cells)” value [5] was “did not seem to have any effect”.
